Reference: publication PMC12484072 (Frontiers in Microbiology, 2025)
Several values for one entry are separate records, joined by “and”; a condition that tells them apart may be missing. Equal values may be shown once. Bridge positions count the residues as written; N and C are the ends. Square brackets hold non-standard residues; d marks the D form. Ends that are not written are not given here. dOrn = NCCC[C@@H](N)C(=O)O

Target: T1, SaNsrP-ECD, soluble extracellular domain of SaNsrP (S. agalactiae)
T1 construct: also called SaNsrFP ECD
Assay: other fluorescence titration
Conditions: both partners purified

B1: bacitracin (peptide)
chain: ICL[dE]IK[dOrn]I[dF]H[dD]N
modifications: lactam 6-C; also: N-terminal thiazoline: Ile1-Cys2 condensed
  Kd: 259 µM and 304 µM
